Data taken from US20110300113A1, “Death Receptor CD95 Controls Neurogenesis of Adult Neural Stem Cells in Vivo and in Vitro” (DEUTSCHES KREBSFORSCHUNGSZENTRUM, priority 2006, published 2011).

Experiments:
Assay type in all cases: cell-based
[1] = system: human neural progenitor cells; experiment: Neuronal differentiation (β-III-tubulin) of human neural progenitor cells after growth factor removal
Procedure: Immunostainings. Immunohistochemistry and Immunocytochemistry were performed as previously described. Primary antibodies used were anti GFP (chicken) (Ayes Labs) 1:1000, anti NeuN (mouse), (Chemicon) 1:200, anti β-III-tubulin (mouse) (Chemicon 1:200), anti GFAP (mouse) (Chemicon 1:200), active-β-Catenin (mouse) (P-Ser37 or P-Thr41; 1:800) (Upstate), phosphorylated GSK3β (P-Ser9-GSK3β, 1:1000). The mouse Pax6 antibody developed by A. Kawakami was obtained from the Developmental Studies Hybridoma Bank developed under auspices of the NICHD and maintained by The University of Iowa, Department of Biological Sciences, Iowa City, Iowa 52242. Secondary antibodies used were goat anti-rabbit alexa 488 (Molecular Probes) 1:500, goat anti-mouse rhodamine X (Dianova) 1:200, Dapi (Sigma) 1:3000, donkey anti-chicken FITC (Dianova) 1:200.
Human neural progenitor generation and culture. The human ES cell line H9.2 was cultivated on mitotically inactivated mouse embryonic fibroblasts (MEFs) in Knockout Dulbecco's Modified Eagle Medium (KO-DMEM, Gibco) containing 20% Knockout Serum Replacement, 1% non-essential amino acids, 1 mM I-glutamine, 0.1 mM β-mercaptoethanol (all from Gibco), and 4 ng/ml human basic fibroblast growth factor (FGF-2, Invitrogen). Cells were routinely passaged every four days by treatment with 100 units collagenase IV (Gibco) for one hour. […]

mouse adult SVZ NSCs = experiment: Gene expression by quantitative real-time PCR in adult SVZ NSCs; settings: 48 h after stimulation
Procedure: Real-time Quantitative PCR. 24 h cells after plating cells were stimulated with 1 activation unit of CD95L-T4. After 48 h RNA was isolated using the RNeasy Mini Kit (Qiagen). Real-time quantitative PCR was carried out using Sybr Green core kits (Eurogentec) and Uracil-N-glycosylase (Eurogentec). For determining CD95L induction after global ischemia, the hippocampi were dissected out and stored in RNAlater reagent (Ambion). RNA was extracted using the RNeasy Mini Kit (Qiagen). Real-time quantitative PCR was carried out using Sybr Green core kits (Eurogentec) and Uracil-N-glycosylase (Eurogentec). Primers used for quantitative real-time PCR were designed using Primer 3 software (http://fokker.wi.mit.edu/cgi-bin/primer3/primer3_www.cgi).

CD95 = target: T1, CD95 (Mus musculus, UniProt P25446); experiment: Immunoprecipitation of CD95 / phosphotyrosine from stimulated NSCs; settings: NSCs or developing neurons
T1 construct: pp60 and p85 association to CD95 increased at 1 minutes and 5 minutes after stimulation of NSCs with 1 U CD95L-T4; endogenous in cells; host or cells: mouse adult neural stem cells (C57BL6)
T1 sequence (P25446 22-327): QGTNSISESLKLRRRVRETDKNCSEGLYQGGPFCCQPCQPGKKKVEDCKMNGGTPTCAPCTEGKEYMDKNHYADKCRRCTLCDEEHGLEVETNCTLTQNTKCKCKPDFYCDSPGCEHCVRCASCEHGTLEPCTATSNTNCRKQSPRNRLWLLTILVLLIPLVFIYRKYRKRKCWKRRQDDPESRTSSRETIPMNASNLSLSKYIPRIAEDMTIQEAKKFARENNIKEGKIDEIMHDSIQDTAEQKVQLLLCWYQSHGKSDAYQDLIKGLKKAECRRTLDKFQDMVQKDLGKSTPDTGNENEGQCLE
Procedure: Immunoprecipitation. 2×10^7 cells were either treated with 1 activation unit (5-40 ng/ml depending on the batch of CD95L-T4) or 5000 ng/ml CD95L-T4 for 1 and 5 minutes (unless otherwise indicated) at 37° C. or left untreated, washed twice in PBS plus phosphatase inhibitors (NaF, NaN3, pNPP, NaPPi, β-Glycerolphosphate, 10 mM each and 2 mM orthovanadate), and subsequently lysed in buffer A (20 mM Tris/HCl, pH 7.5, 150 mM NaCl, 2 mM EDTA, 1 mM phenylmethylsulfonyl fluoride, protease inhibitor cocktail (Roche), 1% Triton X-100 (Serva, Heidelberg, Germany), 10% glycerol, and phosphatase inhibitors (NaF, NaN3, pNPP, NaPPi, 1′-Glycerolphosphate, 10 mM each and 2 mM orthovanadate) (stimulated condition) or lysed without treatment (unstimulated condition). Protein concentration was determined using BCA kit (Pierce). 1 mg of protein was immunoprecipitated overnight with either 5 μg anti-CD95 AB Jo2 or 5 μg anti-phospho tyrosine antibody (pTyr 4G10 (Upstate)) and 30 μl protein-A Sepharose. Beads were washed 5 times with 20 volumes of lysis buffer. The immunoprecipitates were mixed with 60 μl of Laemmli buffer and 30 μl were analyzed on either 15% or 7.5% SDS-PAGE. […]

B1: CD95L: the ligand for CD95 (APO-1/Fas) (protein, listed as Homo sapiens)
chain: MQQPFNYPYPQIYWVDSSASSPWAPPGTVLPCPTSVPRRPGQRRPPPPPPPPPLPPPPPPPPLPPLPLPPLKKRGNHSTGLCLLVMFFMVLVALVGLGLGMFQLFHLQKELAELRESTSQMHTASSLEKQIGHPSPPPEKKELRKVAHLTGKSNSRSMPLEWEDTYGIVLLSGVKYKKGGLVINETGLYFVYSKVYFRGQSCNNLPLSHKVYMRNSKYPQDLVMMEGKMMSYCTTGQMWARSSYLGAVFNLTSADHLYVNVSELSLVNFEESQTFFGLYKL
modifications: CHAIN (1)..(281) This feature is the amino acid sequence for CD95L protein. CD95L is a ligand for CD95. CD95 is APO-1/Fas and a member of the tumor necrosis factor receptor superfamily.
number of neurons / β-III-tubulin positive cells [1]: strikingly increased number of neurons | Neurogenin (Ngn1) expression (mouse adult SVZ NSCs): much higher | FADD recruitment to CD95 (CD95): did not induce efficient recruitment of the adaptor molecule FADD
